Patent US8623997B2, “Variant Hhip1 protein and methods and uses thereof” (Curis, Inc., priority 2008, dated 2014)

Molecular target: T1, biotinylated-ShhN-Cys (Homo sapiens, UniProt Q15465)
T1 construct: ShhN-Cys (residues 24-197); His6 (N); made in house; host or cells: E. coli Rosetta 2
Experiment: Bio-layer interferometry (Octet) binding kinetics of Hhip1β12 variants to Shh
Conditions: for Kd / koff × 10^−4 / kon × 10^3: 1:1 binding model, n.d stands for no binding detected; for Shh binding of Hhip1β12 mutants (in words): bio-layer interferometry, compared with WT Hhip1β12
Experimental: The binding kinetics of the Hhip1β12 fragments as well as Hhip1β12 mutants were measured by bio-layer interferometry in the presence or absence of 10 mM EDTA on an Octet (Fortébio). Streptavidin high binding FA biosensors were loaded with biotinylated-ShhN-Cys in kinetic buffer (Fortébio). The loaded biosensors were washed and transferred to wells containing Hhip1β12 protein at concentrations of 1.2, 1.0, 0.8 and 0.6 μM in kinetic buffer. Hhip1β12 association and dissociation was measured for 30 and 20 min, respectively. Kinetic parameters (kon and koff) and affinities (KD) were calculated from a non-linear fit of the data based on a 1:1 binding model between Hhip1β12 and Shh using the Octet software. Multiple independent measurements were performed.
In order to assess the contribution of residues in the Hhip1 L1, L2 and L3 loops for binding to Shh, a series of single alanine Hipβ12 mutants were made using the QuickChange DNA mutagenesis kit (Stratagene) using the manufacturer's protocol, and their affinity for Shh was measured by bio-layer interferometry (as described in Example 2B). These mutations included Hhip1β12 mutants 1312A, E381A, M382A, D383A, D378A, T418A, Q420A, E380A, D387A and ΔL2.

B1: T418A: L3 loop single alanine variant made in the Hhip1β12 construct (protein)
chain: SNYLDQMEEYDKVEEISRKHKHNCFCIQEVVSGLRQPVGALHSGDGSQRLFILEKEGYVKILTPEGEIFKEPYLDIHKLVQSGIKGGDERGLLSLAFHPNYKKNGKLYVSYTTNQERWAIGPHDHILRVVEYTVSRKNPHQVDLRTARVFLEVAELHRKHLGGQLLFGPDGFLYIILGDGMITLDDMEEMDGLSDFTGSVLRLDVDTDMCNVPYSIPRSNPHFNSANQPPEVFAHGLHDPGRCAVDRHPTDININLTILCSDSNGKNRSSARILQIIKGKDYESEPSLLEFKPFSNGPLVGGFVYRGCQSERLYGSYVFGDRNGNFLTLQQSPVTKQWQEKPLCLGTSGSCRGYFSGHILGFGEDELGEVYILSSSKSMTQTHNGKLYKIVDPKRPLMPEECRATVQPAQTLTSECSRLCRNGYCTPTGKCCCSPGWEGDFCRTAKCEPACRHGGVCVRPNKCLCKKGYLGPQCEHHHHHH
Kd: 270 nM
koff × 10^−4: 9.0 × 10^−4 [s^−1]
kon × 10^3: 3.4 × 10^3 [M^−1 × s^−1]
Shh binding of Hhip1β12 mutants (in words): little effect on Shh

B2: Q420A: L3 loop single alanine variant made in the Hhip1β12 construct (protein)
chain: SNYLDQMEEYDKVEEISRKHKHNCFCIQEVVSGLRQPVGALHSGDGSQRLFILEKEGYVKILTPEGEIFKEPYLDIHKLVQSGIKGGDERGLLSLAFHPNYKKNGKLYVSYTTNQERWAIGPHDHILRVVEYTVSRKNPHQVDLRTARVFLEVAELHRKHLGGQLLFGPDGFLYIILGDGMITLDDMEEMDGLSDFTGSVLRLDVDTDMCNVPYSIPRSNPHFNSTNAPPEVFAHGLHDPGRCAVDRHPTDININLTILCSDSNGKNRSSARILQIIKGKDYESEPSLLEFKPFSNGPLVGGFVYRGCQSERLYGSYVFGDRNGNFLTLQQSPVTKQWQEKPLCLGTSGSCRGYFSGHILGFGEDELGEVYILSSSKSMTQTHNGKLYKIVDPKRPLMPEECRATVQPAQTLTSECSRLCRNGYCTPTGKCCCSPGWEGDFCRTAKCEPACRHGGVCVRPNKCLCKKGYLGPQCEHHHHHH
Kd: 500 nM
koff × 10^−4: 11.0 × 10^−4 [s^−1]
kon × 10^3: 2.1 × 10^3 [M^−1 × s^−1]
Shh binding of Hhip1β12 mutants (in words): little effect on Shh

B3: E380A: L2 loop single alanine variant made in the Hhip1β12 construct (protein)
chain: SNYLDQMEEYDKVEEISRKHKHNCFCIQEVVSGLRQPVGALHSGDGSQRLFILEKEGYVKILTPEGEIFKEPYLDIHKLVQSGIKGGDERGLLSLAFHPNYKKNGKLYVSYTTNQERWAIGPHDHILRVVEYTVSRKNPHQVDLRTARVFLEVAELHRKHLGGQLLFGPDGFLYIILGDGMITLDDMAEMDGLSDFTGSVLRLDVDTDMCNVPYSIPRSNPHFNSTNQPPEVFAHGLHDPGRCAVDRHPTDININLTILCSDSNGKNRSSARILQIIKGKDYESEPSLLEFKPFSNGPLVGGFVYRGCQSERLYGSYVFGDRNGNFLTLQQSPVTKQWQEKPLCLGTSGSCRGYFSGHILGFGEDELGEVYILSSSKSMTQTHNGKLYKIVDPKRPLMPEECRATVQPAQTLTSECSRLCRNGYCTPTGKCCCSPGWEGDFCRTAKCEPACRHGGVCVRPNKCLCKKGYLGPQCEHHHHHH
Shh binding of Hhip1β12 mutants (in words): minor to moderate effects on Shh binding
Shh binding of Hhip1β12 mutants (in words) (listed as E380): abolished binding to Shh

B4: M382A: L2 loop single alanine variant made in the Hhip1β12 construct (protein)
chain: SNYLDQMEEYDKVEEISRKHKHNCFCIQEVVSGLRQPVGALHSGDGSQRLFILEKEGYVKILTPEGEIFKEPYLDIHKLVQSGIKGGDERGLLSLAFHPNYKKNGKLYVSYTTNQERWAIGPHDHILRVVEYTVSRKNPHQVDLRTARVFLEVAELHRKHLGGQLLFGPDGFLYIILGDGMITLDDMEEADGLSDFTGSVLRLDVDTDMCNVPYSIPRSNPHFNSTNQPPEVFAHGLHDPGRCAVDRHPTDININLTILCSDSNGKNRSSARILQIIKGKDYESEPSLLEFKPFSNGPLVGGFVYRGCQSERLYGSYVFGDRNGNFLTLQQSPVTKQWQEKPLCLGTSGSCRGYFSGHILGFGEDELGEVYILSSSKSMTQTHNGKLYKIVDPKRPLMPEECRATVQPAQTLTSECSRLCRNGYCTPTGKCCCSPGWEGDFCRTAKCEPACRHGGVCVRPNKCLCKKGYLGPQCEHHHHHH
Shh binding of Hhip1β12 mutants (in words): abolished binding to Shh

B5: D387A: L2 loop single alanine variant made in the Hhip1β12 construct (protein)
chain: SNYLDQMEEYDKVEEISRKHKHNCFCIQEVVSGLRQPVGALHSGDGSQRLFILEKEGYVKILTPEGEIFKEPYLDIHKLVQSGIKGGDERGLLSLAFHPNYKKNGKLYVSYTTNQERWAIGPHDHILRVVEYTVSRKNPHQVDLRTARVFLEVAELHRKHLGGQLLFGPDGFLYIILGDGMITLDDMEEMDGLSAFTGSVLRLDVDTDMCNVPYSIPRSNPHFNSTNQPPEVFAHGLHDPGRCAVDRHPTDININLTILCSDSNGKNRSSARILQIIKGKDYESEPSLLEFKPFSNGPLVGGFVYRGCQSERLYGSYVFGDRNGNFLTLQQSPVTKQWQEKPLCLGTSGSCRGYFSGHILGFGEDELGEVYILSSSKSMTQTHNGKLYKIVDPKRPLMPEECRATVQPAQTLTSECSRLCRNGYCTPTGKCCCSPGWEGDFCRTAKCEPACRHGGVCVRPNKCLCKKGYLGPQCEHHHHHH
Shh binding of Hhip1β12 mutants (in words): abolished binding to Shh

B6: D378A: L2 loop single alanine variant made in the Hhip1β12 construct (protein)
chain: SNYLDQMEEYDKVEEISRKHKHNCFCIQEVVSGLRQPVGALHSGDGSQRLFILEKEGYVKILTPEGEIFKEPYLDIHKLVQSGIKGGDERGLLSLAFHPNYKKNGKLYVSYTTNQERWAIGPHDHILRVVEYTVSRKNPHQVDLRTARVFLEVAELHRKHLGGQLLFGPDGFLYIILGDGMITLDAMEEMDGLSDFTGSVLRLDVDTDMCNVPYSIPRSNPHFNSTNQPPEVFAHGLHDPGRCAVDRHPTDININLTILCSDSNGKNRSSARILQIIKGKDYESEPSLLEFKPFSNGPLVGGFVYRGCQSERLYGSYVFGDRNGNFLTLQQSPVTKQWQEKPLCLGTSGSCRGYFSGHILGFGEDELGEVYILSSSKSMTQTHNGKLYKIVDPKRPLMPEECRATVQPAQTLTSECSRLCRNGYCTPTGKCCCSPGWEGDFCRTAKCEPACRHGGVCVRPNKCLCKKGYLGPQCEHHHHHH
Kd: 2400 nM
koff × 10^−4: 3.6 × 10^−4 [s^−1]
kon × 10^3: 0.15 × 10^3 [M^−1 × s^−1]
Shh binding of Hhip1β12 mutants (in words): minor to moderate effects on Shh binding

B7: E381A: L2 loop single alanine variant made in the Hhip1β12 construct (protein)
chain: SNYLDQMEEYDKVEEISRKHKHNCFCIQEVVSGLRQPVGALHSGDGSQRLFILEKEGYVKILTPEGEIFKEPYLDIHKLVQSGIKGGDERGLLSLAFHPNYKKNGKLYVSYTTNQERWAIGPHDHILRVVEYTVSRKNPHQVDLRTARVFLEVAELHRKHLGGQLLFGPDGFLYIILGDGMITLDDMEAMDGLSDFTGSVLRLDVDTDMCNVPYSIPRSNPHFNSTNQPPEVFAHGLHDPGRCAVDRHPTDININLTILCSDSNGKNRSSARILQIIKGKDYESEPSLLEFKPFSNGPLVGGFVYRGCQSERLYGSYVFGDRNGNFLTLQQSPVTKQWQEKPLCLGTSGSCRGYFSGHILGFGEDELGEVYILSSSKSMTQTHNGKLYKIVDPKRPLMPEECRATVQPAQTLTSECSRLCRNGYCTPTGKCCCSPGWEGDFCRTAKCEPACRHGGVCVRPNKCLCKKGYLGPQCEHHHHHH
Kd: 300 nM
koff × 10^−4: 3.3 × 10^−4 [s^−1]
kon × 10^3: 1.1 × 10^3 [M^−1 × s^−1]
